{
  "source": "patent US20180125988A1",
  "about": "“TARGETED XTEN CONJUGATE COMPOSITIONS AND METHODS OF MAKING SAME” (AMUNIX OPERATING INC., priority 2014, published 2018)",
  "binders": {"B1": {"name": "XTEN432-3xMMAE (protein)", "chain": "SAGSPTAEAAGCGTAEAAGTSESATPESGPGSEPATSGSETPGTSESATPESGPGTSTEPSEGSAPGTSESATPESGPGSPAGSPTSTEEGSPAGSPTSTEEGSPAGSPTSTEEGTSESATPESGPGTSTEPSEGSAPGTSESATPESGPGSEPATSGSETPGTSESATPESGPGSEPATSGSETPGTSESATPESGPGTSTEPSEGSAPTAEAAGCGTAEAAGSPAGSPTSTEEGTSESATPESGPGSEPATSGSETPGTSESATPESGPGSPAGSPTSTEEGSPAGSPTSTEEGTSTEPSEGSAPGTSESATPESGPGTSESATPESGPGTSESATPESGPGSEPATSGSETPGSEPATSGSETPGSPAGSPTSTEEGTSTEPSEGSAPGTSTEPSEGSAPGSEPATSGSETPTAEAAGCGTAEAASASR"}, "B2": {"name": "XTEN432-3xDM1 (protein)", "chain": "B1 chain"}},
  "molecular_target": "HER2 (ErbB2, HER2/neu receptor) on HER2 expressing tumor cell lines (human (human tumor cell lines)) (UniProt P04626)",
  "assay": "cell-based or functional assay",
  "data": [
    {"binder": "B1", "values": [
      {"measurement": "IC50, CellTiter-Glo cytotoxicity, BT474 cells", "result": "> 300", "unit": "nM"},
      {"measurement": "IC50, CellTiter-Glo cytotoxicity, HCC1954 cells", "result": "> 300", "unit": "nM"},
      {"measurement": "IC50, CellTiter-Glo cytotoxicity, NCI-N87 cells", "result": "> 1000", "unit": "nM"},
      {"measurement": "IC50, CellTiter-Glo cytotoxicity, SK-BR-3 cells", "result": "> 300", "unit": "nM"},
      {"measurement": "IC50, CellTiter-Glo cytotoxicity, SK-OV-3 cells", "result": "> 700", "unit": "nM"}
    ]},
    {"binder": "B2", "values": [
      {"measurement": "IC50, CellTiter-Glo cytotoxicity, BT474 cells", "result": "> 1000", "unit": "nM"},
      {"measurement": "IC50, CellTiter-Glo cytotoxicity, HCC1954 cells", "result": "> 360", "unit": "nM"},
      {"measurement": "IC50, CellTiter-Glo cytotoxicity, NCI-N87 cells", "result": "> 1000", "unit": "nM"},
      {"measurement": "IC50, CellTiter-Glo cytotoxicity, SK-BR-3 cells", "result": "> 1000", "unit": "nM"},
      {"measurement": "IC50, CellTiter-Glo cytotoxicity, SK-OV-3 cells", "result": "> 700", "unit": "nM"}
    ]}
  ]
}
